Results as given in US20090304721A1, “TOXIN […] RECEPTOR ANTIBODIES” (priority 2005, published 2009).

How the values were obtained:
PC3 tumor = test: In vivo efficacy, subcutaneous tumor xenograft; parameters: species or system Athymic nu/nu mice; conditions: intraperitoneal, every fourth day, 5 doses; tumor volume by caliper
Procedure: (§3) Athymic nu/nu (Harlan, Somerville, N.J.) female mice 4-6 weeks of age were injected subcutaneously with 5×10^6 tumor cells. […] Each treatment group consisted of groups of mice ranging in number from 10-12.
(§4) Tumor volume measurements were taken with a caliper routinely (1-2 times/week) starting at the initiation of drug treatment.

EphA2 = target: T1, EphA2 (Homo sapiens, UniProt P29317); test: EphA2 receptor activation (phosphorylation, immunoprecipitation/Western); type: cell-based; conditions: HuVec cells
T1 construct: endogenous in cells; host or cells: HUVEC (human)
T1 sequence (P29317 24-976): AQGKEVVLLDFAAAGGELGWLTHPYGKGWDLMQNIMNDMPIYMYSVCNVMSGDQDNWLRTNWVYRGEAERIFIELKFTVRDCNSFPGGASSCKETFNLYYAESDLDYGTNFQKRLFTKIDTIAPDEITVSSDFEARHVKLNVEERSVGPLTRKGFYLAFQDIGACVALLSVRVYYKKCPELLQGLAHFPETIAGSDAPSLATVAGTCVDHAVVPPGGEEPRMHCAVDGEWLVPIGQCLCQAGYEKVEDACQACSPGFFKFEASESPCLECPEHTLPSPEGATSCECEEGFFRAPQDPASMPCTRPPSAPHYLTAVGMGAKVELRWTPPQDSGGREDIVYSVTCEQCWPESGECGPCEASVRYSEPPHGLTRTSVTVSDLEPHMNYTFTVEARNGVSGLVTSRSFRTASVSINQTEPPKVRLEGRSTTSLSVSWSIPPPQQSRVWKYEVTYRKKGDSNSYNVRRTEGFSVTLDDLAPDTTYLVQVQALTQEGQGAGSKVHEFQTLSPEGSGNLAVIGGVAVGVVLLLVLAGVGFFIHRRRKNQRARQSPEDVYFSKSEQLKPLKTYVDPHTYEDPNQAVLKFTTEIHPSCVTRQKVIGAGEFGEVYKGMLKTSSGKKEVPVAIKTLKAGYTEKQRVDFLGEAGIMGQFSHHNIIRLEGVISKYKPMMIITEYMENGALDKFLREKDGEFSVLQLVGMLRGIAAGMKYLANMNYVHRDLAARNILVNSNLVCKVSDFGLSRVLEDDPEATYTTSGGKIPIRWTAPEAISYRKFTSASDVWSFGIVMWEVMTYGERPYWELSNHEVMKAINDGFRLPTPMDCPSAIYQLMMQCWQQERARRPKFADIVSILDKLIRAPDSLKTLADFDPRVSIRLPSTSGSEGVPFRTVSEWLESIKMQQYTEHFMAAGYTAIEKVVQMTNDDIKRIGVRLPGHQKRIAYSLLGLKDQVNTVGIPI
Procedure: Cells were grown overnight at 37° C./5% CO2 at a concentration of 0.5×10^6 cells per 3 ml of appropriate growth media per well in 6-well tissue culture plates. […] The cells were incubated for 15 minutes at 37° C./5% CO2 to activate EphA2 receptor. Subsequent to activation the cells were washed 1× with cold PBS and lysed on ice with 1% Triton X-100 lysis buffer containing Phosphatase Inhibitor Cocktails 1 and 2 (Sigma) and Complete Protease Inhibitor Cocktail Tablets (Roche), added as per manufacturer's recommendation. D7 α-EphA2 mAb and 50 μl of protein A sepharose beads pre-conjugated to rabbit anti-mouse IgG were mixed with lysate at 4° C. overnight to immunoprecipitate the proteins.
Protein lysates were resolved by 10% Bis-Tris NuPAGE Western gel and transferred electrophoretically to nitrocellulose membranes (Invitrogen) following manufacturer's protocol. […] See also Coffman et al., Cancer Res. 63: 7907-7912, 2003.

HuVec cells = test: Fluorescent visualization of internalization of α-EphA2 antibodies; type: cell-based, human; conditions: 50 μg/ml Ab, 20 minutes at 37° C.
Procedure: (§1) Cells (PC3, HUVEC, or CT26) were grown for 24-48 hours at 37° C./5% CO2 at a concentration of 2.5-5.0×10^4 cells per 400 μl of appropriate growth media per chamber on Nunc's Tek II 8-chamber slides. […] Cells were then washed 2× with PBS and cell-surface-bound primary Abs were allowed to internalize by covering the cells with growth media and incubation at 37° C./5% CO2 for 0 minutes, 20 minutes (FIGS. 18A-C and 19), or 60 minutes (FIG. 17).
(§2) Subsequent to internalization, cells were fixed (4% paraformaldehyde), permeabilized (0.5% Triton X-100), and labeled with secondary AlexaFluor 488 goat-α-human IgG Ab (Biosource), with 2× cold PBS washing in between steps.
Finally, the cells were covered with […] Mounting Media with DAPI (Vector Labs) and a coverslip prior to examination and photography with fluorescent confocal microscope. Results of the antibody internalization experiments are shown in the fluorescent microscopy pictures of FIGS. 16, 17, 18A, 18B, 18C, and 19 herein. EphA2 was rapidly internalized in these cell lines upon binding the agonistic EphA2 antibodies.

MDA-MB231 tumor = test: In vivo efficacy, subcutaneous tumor xenograft; parameters: species or system Athymic nu/nu mice; conditions: intraperitoneal, every fourth day, 5 doses; tumor volume by caliper
Procedure: as §3, §4

PC3 cells = test: Fluorescent visualization of internalization of α-EphA2 antibodies; type: cell-based, human; conditions: 50 μg/ml Ab, 20 or 60 minutes at 37° C.
Procedure: FIG. 18. […] PC3 cells were labeled with either human α-EphA2 mAb (G5; panels A and B) or R347 isotype control (panel C). Cell surface attached antibodies were then allowed to internalize by incubating the cells under growth conditions for either zero (non-internalized: panels A and C) or […] (internalized: panel B). All cells were then fixed (4% formaldehyde), permeabilized (0.5% Triton X-100), and stained with AlexaFluor 488-Ab prior to addition of antifade mounting media and fluorescent microscopy examination.
as §1, §2
Finally, the cells were covered with […] Mounting Media with DAPI (Vector Labs) and a coverslip prior to examination and photography with fluorescent confocal microscope. […]

B1: 3F2vcMMAE: anti-EphA2 antibody 3F2 conjugated to MMAE with a vc linker (conjugate)
VH: EVQLVESGGGVVRPGGSLRLSCAASGFTVSDYSMNWVRQAPGKGLEWIGFIRNKANAYTTEYSASVKGRFTISRDDSKNTLYLQMNSLKTEDTAVYYCTTYPRYHAMDSWGQGTMVTVSS
VL: AIQLTQSPSSLSASVGDRVTITCRASQSISNNLHWYLQKPGQSPQLLIYYGFQSISGVPSRFSGSGSGTDFTLTISSLQPEDFATYYCQQANSWPLTFGGGTKLEIK
modifications: non-natural residues
notes: anti-EphA2 antibody 3F2 conjugated to MMAE with a vc linker
For B1, the “PC3 tumor growth in vivo” value (PC3 tumor) was “specifically inhibit”.

B2: 3F2: humanized agonistic monoclonal antibody that binds EphA2; VH/VL SEQ ID NO: 63 and 64 (antibody, V domains shown)
VH: EVQLVESGGGVVRPGGSLRLSCAASGFTVSDYSMNWVRQAPGKGLEWIGFIRNKANAYTTEYSASVKGRFTISRDDSKNTLYLQMNSLKTEDTAVYYCTTYPRYHAMDSWGQGTMVTVSS
VL: AIQLTQSPSSLSASVGDRVTITCRASQSISNNLHWYLQKPGQSPQLLIYYGFQSISGVPSRFSGSGSGTDFTLTISSLQPEDFATYYCQQANSWPLTFGGGTKLEIK
modifications: Antibody Variable Heavy chain; Antibody Variable region
B2 was tested, and the EphA2 phosphorylation (EphA2) was “EphA2 phosphorylation” and the internalization by immunofluorescence (HuVec cells) was “Internalization”.

B3: G5vcMMAF: anti-EphA2 antibody G5 conjugated to MMAF with the valine-citrulline (vc) linker (conjugate)
VH: QMQLVQSGPEVKKPGTSVKVSCKASGFTFTDYSMNWVRQARGQRLEWIGFIRNKANDYTTEYSASVKGRVTITRDMSTSTAYMELSSLRSEDTAVYYCARYPRYHAMDSWGQGTSVTVSS
VL: DIQMTQSPSSLSASVGDRVTITCRASQSISNNLHWYQQKPGKAPKLLIKYVFQSISGVPSRFSGSGSGTDFTFTISSLQPEDFATYYCQQSNSWPLTFGGGTKVEIKG
modifications: non-natural residues
notes: anti-EphA2 antibody G5 conjugated to MMAF with the valine-citrulline (vc) linker
In the case of B3, the “PC3 tumor growth in vivo” value (PC3 tumor) is reported as “specifically inhibited” and the “MDA-MB231 tumor growth in vivo” value (MDA-MB231 tumor) is reported as “specifically inhibited”.

B4: G5: humanized agonistic monoclonal antibody that binds EphA2; VH/VL SEQ ID NO. 103 and 104 (antibody, V domains shown)
VH: QMQLVQSGPEVKKPGTSVKVSCKASGFTFTDYSMNWVRQARGQRLEWIGFIRNKANDYTTEYSASVKGRVTITRDMSTSTAYMELSSLRSEDTAVYYCARYPRYHAMDSWGQGTSVTVSS
VL: DIQMTQSPSSLSASVGDRVTITCRASQSISNNLHWYQQKPGKAPKLLIKYVFQSISGVPSRFSGSGSGTDFTFTISSLQPEDFATYYCQQSNSWPLTFGGGTKVEIKG
modifications: Antibody variable region
For B4, the internalization by immunofluorescence (PC3 cells) was “internalization”.
